Source: US20140336119A1 (INSTITUT PASTEUR, published 2014)

What was measured:
[1] = biological target: T1, Muc2 (human, glycosylated, secreted in colonic mucus) (human, UniProt Q02817 21-5289, limits assumed, native glycosylation, with sulfated oligosaccharides); assay: staining of PFA-fixed; FIG. 31 is titled 'Identification of Muc2 in neutrophile granules'
T1 construct: Native secreted mucin in mucus extracts or tissue, not a purified recombinant protein; also called glycoprotein Muc2
Experimental: FIG. 31. Identification of Muc2 in neutrophile granules. Human neutrophil (PMN) granule staining using Cy5-MUB40-1, Cy5-MUB40-2, Cy5-MUB40-3, Cy5-MUB40-4 peptides. Schematic description of the Cy5-conjugated peptides. PMN were purified from healthy donor blood samples and fixed in the presence of 4% PFA. Fluorescent staining of human colonic mucus was performed by the addition of 1 μg/mL of the Cy5-conjugated peptides (Green) with Dapi (1:100) (Blue) and Phalloidin-RRX (1:1000) (Red). Image acquisition was performed using a fluorescent confocal microscope (see Methods).

[2] = biological target: Muc6 (human, in colonic mucus extract) (human, UniProt Q6W4X9 23-2439, limits assumed); assay: pulldown on avidin-agarose beads, dot blot immunodetection
Experimental: (§1) Pulldown assays were performed in the presence of 600 μg biot-MUB₇₀ bound to 500 μL Avidin-agarose beads (Thermo Scientific) in a Phosphate Buffer pH=8 buffer for 1 h at 4° C. After 3 washes, 10 mg soluble human colonic mucus extract were incubated with the loaded beads for 2 h at 4° C. After 3 washes, beads were boiled in the presence of 1× Laemli buffer. As a negative control, Avidin-agarose beads were loaded with 15 μg biotin (Sigma-Aldrich) and processed using the same procedure. Experiments were performed on two independent occasions.
(§2) In order to identify a MUB₇₀ ligand present in the soluble extracts of human colonic mucus, biot-MUB₇₀, a biotinylated form of MUB₇₀, was synthesized (see Methods) in order to perform pulldown assays. Biot-MUB₇₀ was incubated with avidin beads and further with human colonic mucus extracts (produced in vitro from differentiated HT-29 MTX cells, see Methods). Biotin only was used as a negative control. […] A dot blot assay was then performed, focusing on secreted mucins, which are the major components of colonic mucus. Muc2 was immunodectected in the eluted fraction, and not in the negative control, and Muc5ac, Muc5b or Muc6, all detected in the input were absent from the eluted fraction (FIG. 4A). […] Processing a chemical deglycosylation step on the soluble mucus extract (see Methods) prior to pulldown assay abolished the interaction between Muc2 and biot-MUB₇₀ (FIG. 4A). […] [12].

[3] = biological target: Muc5b (human, in colonic mucus extract) (human, UniProt Q9HC84 26-5762, limits assumed); assay: as above
Experimental: as §1, §2

[4] = biological target: Muc5ac (human, in colonic mucus extract) (human, UniProt P98088 28-5654, limits assumed); assay: as above
Experimental: as §1, §2

[5] = biological target: T2, Muc2 of mouse colonic mucus (mouse, UniProt Q80Z19 21-4576, limits assumed); assay: fluorescent staining of PFA-fixed mouse colon, confocal microscopy
T2 construct: The experiment stained colonic mucus; also called murine Muc2
Experimental: FIG. 11. Mucus staining using Cy5-MUB₇₀ on fixed tissues. (A) Guinea pig colon, (B) rabbit ileum and (C) mouse colon were fixed in PFA 4%. Immunofluorescent staining was performed using Cy5-MUB₇₀ (1 μg/mL) (blue). Actin is stained in red (Phall.-RRX), Muc2 is stained in green (α-Muc2). Observations were performed using a confocal microscope. Bar is 50 μm.

[6] = biological target: T1, Muc2 (human, glycosylated, secreted in …); assay: fluorescent staining of fixed human colonic mucus; MUB40 probes said to display the same properties as the MUB70 probe
Experimental: FIG. 22. Schematic description of the Cy5-MUB40-1, Cy5-MUB40-2, Cy5-MUB40-3, Cy5-MUB40-4 peptides (SEQ ID NOS 62 to 65). Fluorescent staining of human colonic mucus was performed by the addition of 1 μg/mL of the corresponding Cy5-conjugated peptides with Phalloidin-RRX (1:100) on formol fixed, paraffin embedded samples. Image acquisition was performed using a fluorescent confocal microscope (see Methods).
FIG. 23 Comparative staining analysis of human colonic goblet cells using Cy5-MUB70 and Cy5-MUB40-1. Fluorescent staining of human colonic mucus was performed by the addition of 1 μg/mL of the corresponding Cy5-conjugated peptides with Phalloidin-RRX (1:100) on formol fixed, paraffin embedded samples. Image acquisition was performed using a fluorescent confocal microscope (see Methods).

T2 sequence (Q80Z19 21-4576 limits assumed): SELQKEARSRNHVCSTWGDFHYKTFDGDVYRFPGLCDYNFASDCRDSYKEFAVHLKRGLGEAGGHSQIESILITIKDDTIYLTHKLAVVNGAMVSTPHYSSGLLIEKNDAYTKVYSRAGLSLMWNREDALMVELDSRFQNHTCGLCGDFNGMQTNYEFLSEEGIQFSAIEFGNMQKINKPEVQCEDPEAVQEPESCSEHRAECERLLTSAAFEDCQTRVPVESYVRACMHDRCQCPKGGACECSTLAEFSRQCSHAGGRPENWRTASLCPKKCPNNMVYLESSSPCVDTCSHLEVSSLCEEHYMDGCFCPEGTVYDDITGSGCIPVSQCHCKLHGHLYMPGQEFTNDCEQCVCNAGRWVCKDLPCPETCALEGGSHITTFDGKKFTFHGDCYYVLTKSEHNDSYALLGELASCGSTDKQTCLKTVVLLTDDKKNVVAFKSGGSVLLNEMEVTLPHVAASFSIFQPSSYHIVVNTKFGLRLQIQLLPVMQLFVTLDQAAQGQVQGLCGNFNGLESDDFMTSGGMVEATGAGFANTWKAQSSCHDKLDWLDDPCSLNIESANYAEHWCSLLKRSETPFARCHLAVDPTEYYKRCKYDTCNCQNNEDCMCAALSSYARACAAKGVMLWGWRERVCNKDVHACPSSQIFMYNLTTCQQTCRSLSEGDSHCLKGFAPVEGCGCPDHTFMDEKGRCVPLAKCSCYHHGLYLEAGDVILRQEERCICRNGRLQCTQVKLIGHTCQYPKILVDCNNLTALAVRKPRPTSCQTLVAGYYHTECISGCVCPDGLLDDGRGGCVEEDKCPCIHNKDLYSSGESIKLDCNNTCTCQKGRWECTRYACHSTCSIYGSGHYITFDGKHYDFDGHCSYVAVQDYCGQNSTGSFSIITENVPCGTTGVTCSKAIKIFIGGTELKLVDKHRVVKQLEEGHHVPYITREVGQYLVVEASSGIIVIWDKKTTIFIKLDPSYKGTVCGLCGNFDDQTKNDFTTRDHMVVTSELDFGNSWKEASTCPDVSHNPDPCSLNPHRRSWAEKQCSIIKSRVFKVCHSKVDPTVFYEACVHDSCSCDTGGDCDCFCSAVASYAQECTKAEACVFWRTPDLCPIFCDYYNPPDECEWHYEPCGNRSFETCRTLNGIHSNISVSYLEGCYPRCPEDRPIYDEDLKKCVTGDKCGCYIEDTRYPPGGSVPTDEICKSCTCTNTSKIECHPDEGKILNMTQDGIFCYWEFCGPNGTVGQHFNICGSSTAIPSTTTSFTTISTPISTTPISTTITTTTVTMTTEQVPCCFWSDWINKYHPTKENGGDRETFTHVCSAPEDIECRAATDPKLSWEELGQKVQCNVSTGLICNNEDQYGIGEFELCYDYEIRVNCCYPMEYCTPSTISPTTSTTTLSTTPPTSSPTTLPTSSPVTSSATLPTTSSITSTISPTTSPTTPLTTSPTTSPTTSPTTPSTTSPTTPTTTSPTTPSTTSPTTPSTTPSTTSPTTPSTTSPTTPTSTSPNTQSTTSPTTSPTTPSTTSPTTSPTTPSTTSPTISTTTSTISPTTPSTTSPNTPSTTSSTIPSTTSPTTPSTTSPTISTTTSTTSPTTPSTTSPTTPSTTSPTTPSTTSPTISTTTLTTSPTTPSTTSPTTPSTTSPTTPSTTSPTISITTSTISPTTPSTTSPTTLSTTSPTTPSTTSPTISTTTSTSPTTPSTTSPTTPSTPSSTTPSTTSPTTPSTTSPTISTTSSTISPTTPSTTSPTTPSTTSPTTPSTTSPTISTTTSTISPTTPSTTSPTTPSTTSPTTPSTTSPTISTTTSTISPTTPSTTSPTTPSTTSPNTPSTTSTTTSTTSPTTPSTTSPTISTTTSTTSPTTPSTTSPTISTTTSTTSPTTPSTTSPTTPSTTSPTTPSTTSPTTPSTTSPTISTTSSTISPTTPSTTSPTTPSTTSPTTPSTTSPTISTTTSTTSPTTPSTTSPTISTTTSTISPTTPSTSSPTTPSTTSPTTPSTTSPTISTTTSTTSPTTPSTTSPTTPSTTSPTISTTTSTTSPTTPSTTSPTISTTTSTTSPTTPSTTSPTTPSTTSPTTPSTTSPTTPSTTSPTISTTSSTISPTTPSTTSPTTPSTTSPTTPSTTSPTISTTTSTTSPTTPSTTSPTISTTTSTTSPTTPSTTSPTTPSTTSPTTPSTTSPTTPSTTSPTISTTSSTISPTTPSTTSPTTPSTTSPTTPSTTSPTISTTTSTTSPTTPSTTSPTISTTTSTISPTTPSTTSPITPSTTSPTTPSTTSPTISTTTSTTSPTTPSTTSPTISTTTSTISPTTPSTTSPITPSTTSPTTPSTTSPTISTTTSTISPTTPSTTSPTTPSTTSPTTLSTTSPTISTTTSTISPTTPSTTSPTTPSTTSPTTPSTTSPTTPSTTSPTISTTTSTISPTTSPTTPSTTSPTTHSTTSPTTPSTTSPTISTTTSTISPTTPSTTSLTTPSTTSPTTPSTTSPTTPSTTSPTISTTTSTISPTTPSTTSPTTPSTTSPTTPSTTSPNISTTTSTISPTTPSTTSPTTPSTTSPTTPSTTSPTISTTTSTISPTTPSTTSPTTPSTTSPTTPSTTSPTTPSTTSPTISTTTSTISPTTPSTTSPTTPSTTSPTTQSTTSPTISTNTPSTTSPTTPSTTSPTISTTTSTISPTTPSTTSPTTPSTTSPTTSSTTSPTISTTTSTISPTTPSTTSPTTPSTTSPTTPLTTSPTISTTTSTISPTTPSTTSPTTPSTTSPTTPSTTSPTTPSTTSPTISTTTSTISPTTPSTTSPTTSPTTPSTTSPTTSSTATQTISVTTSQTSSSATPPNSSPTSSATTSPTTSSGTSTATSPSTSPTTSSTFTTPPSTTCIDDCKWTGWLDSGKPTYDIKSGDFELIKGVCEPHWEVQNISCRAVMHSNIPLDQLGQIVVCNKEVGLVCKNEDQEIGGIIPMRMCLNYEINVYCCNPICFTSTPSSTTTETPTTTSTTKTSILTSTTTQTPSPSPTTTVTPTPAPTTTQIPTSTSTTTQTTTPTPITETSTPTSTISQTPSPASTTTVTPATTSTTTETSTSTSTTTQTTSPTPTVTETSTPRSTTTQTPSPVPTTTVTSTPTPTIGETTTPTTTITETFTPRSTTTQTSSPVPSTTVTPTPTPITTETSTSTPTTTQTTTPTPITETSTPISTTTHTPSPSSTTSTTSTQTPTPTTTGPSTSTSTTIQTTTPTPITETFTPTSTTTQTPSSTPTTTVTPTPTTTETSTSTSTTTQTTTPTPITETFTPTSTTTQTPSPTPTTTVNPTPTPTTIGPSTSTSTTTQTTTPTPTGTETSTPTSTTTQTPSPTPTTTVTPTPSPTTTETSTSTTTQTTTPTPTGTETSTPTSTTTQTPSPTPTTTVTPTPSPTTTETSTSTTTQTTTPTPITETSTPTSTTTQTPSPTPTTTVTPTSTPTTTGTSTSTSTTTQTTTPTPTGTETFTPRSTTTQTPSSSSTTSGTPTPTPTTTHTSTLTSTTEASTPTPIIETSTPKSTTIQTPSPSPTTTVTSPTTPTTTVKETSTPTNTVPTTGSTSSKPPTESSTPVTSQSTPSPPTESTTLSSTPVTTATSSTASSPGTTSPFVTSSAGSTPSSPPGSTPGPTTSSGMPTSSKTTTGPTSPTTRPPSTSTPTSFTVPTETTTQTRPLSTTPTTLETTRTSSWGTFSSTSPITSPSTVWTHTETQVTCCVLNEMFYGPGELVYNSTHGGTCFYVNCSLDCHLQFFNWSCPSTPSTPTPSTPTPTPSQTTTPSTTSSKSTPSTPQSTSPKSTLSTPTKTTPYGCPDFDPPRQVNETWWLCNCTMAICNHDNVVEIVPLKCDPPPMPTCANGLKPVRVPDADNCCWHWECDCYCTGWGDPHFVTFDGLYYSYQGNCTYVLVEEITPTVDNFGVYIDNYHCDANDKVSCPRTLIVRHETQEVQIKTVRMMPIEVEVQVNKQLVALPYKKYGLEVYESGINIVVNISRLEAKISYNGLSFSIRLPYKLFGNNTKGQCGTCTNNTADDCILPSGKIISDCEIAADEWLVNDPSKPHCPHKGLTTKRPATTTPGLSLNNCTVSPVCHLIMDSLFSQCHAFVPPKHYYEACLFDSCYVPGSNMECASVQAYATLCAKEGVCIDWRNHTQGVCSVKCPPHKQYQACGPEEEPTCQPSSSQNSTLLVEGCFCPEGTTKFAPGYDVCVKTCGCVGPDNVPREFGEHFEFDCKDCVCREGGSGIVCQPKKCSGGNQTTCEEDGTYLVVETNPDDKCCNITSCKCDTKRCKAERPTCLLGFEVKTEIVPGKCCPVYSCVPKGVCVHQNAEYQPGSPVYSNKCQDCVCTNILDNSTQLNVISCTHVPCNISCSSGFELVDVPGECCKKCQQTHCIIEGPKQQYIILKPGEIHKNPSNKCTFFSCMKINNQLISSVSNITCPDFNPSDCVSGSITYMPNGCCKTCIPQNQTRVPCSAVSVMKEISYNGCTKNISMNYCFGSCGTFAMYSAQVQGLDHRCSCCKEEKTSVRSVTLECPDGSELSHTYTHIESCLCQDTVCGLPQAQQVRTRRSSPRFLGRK

B1: Cy5-MUB40-4 (peptide)
peptide: Ac-C(Cy5 maleimide)VHVQYIDGETDQMLRQDDLDGYTDETIPYSTAEGIKKFEG-NH2
notes: also called MUB40-Cy5#4; Cy5-labeled MUB40-4
B1: binds [1].

B2: biot-MUB70 (biotinylated MUB70) (peptide)
peptide: CVHVQYIDGETDQMLRQDDLDGYTDETIPYSTAEGIKKFEGDGYELFKDNFPAGEKFDNDDTNDQFYTVIF
modifications: maleimide-PEG2-biotin on the added N-terminal Cys
notes: Chemically synthesized; also called biotinylated derivative of MUB70
B2: no binding [2]; no binding [3]; no binding [4].

B3: Cy5-MUB70 (peptide)
peptide: CVHVQYIDGETDQMLRQDDLDGYTDETIPYSTAEGIKKFEGDGYELFKDNFPAGEKFDNDDTNDQFYTVIF
modifications: Cy5 mono maleimide on the added N-terminal Cys
notes: Chemically synthesized; also called MUB70-Cy5; Cy5-labeled MUB
B3: no binding (tested: 1 µg/mL) [5].

B4: Cy5-MUB40-2 (peptide)
peptide: Ac-C(Cy5 maleimide)GYTDETIPYSTAEGIKKFEGDGYELFKDNFPAGEKFDNDD-NH2
notes: also called MUB40-Cy5#2; Cy5-labeled MUB40-2
B4: binds [1].

B5: Cy5-MUB40-3 (peptide)
peptide: Ac-C(Cy5 maleimide)DQMLRQDDLDGYTDETIPYSTAEGIKKFEGDGYELFKDNF-NH2
notes: also called MUB40-Cy5#3; Cy5-labeled MUB40-3
B5: binds [1].

B6: Cy5-MUB40-1 (peptide)
peptide: Ac-C(Cy5 maleimide)TAEGIKKFEGDGYELFKDNFPAGEKFDNDDTNDQFYTVIF-NH2
notes: also called MUB40-Cy5#1; Cy5-labeled MUB40-1
B6: binds [6].
